Source: patent US20180050011A1

T1: S100A9 (human) (UniProt P06702)
T1 sequence (looked up): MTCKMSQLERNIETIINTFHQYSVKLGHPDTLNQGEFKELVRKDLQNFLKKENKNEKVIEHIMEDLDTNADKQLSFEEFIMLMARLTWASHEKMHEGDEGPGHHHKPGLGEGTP


How the values were obtained:
[1] = target: T1, S100A9 (human); experiment: cell-based or functional assay
[2] = target: apoptosis-associated speck-like protein containing a caspase-recruitment domain (ASC) (human) (UniProt Q9ULZ3); experiment: cell-based or functional assay
Sequence of apoptosis-associated speck-like protein containing a caspase-recruitment domain (ASC) (human) (Q9ULZ3 whole entry, the tested form may be a part): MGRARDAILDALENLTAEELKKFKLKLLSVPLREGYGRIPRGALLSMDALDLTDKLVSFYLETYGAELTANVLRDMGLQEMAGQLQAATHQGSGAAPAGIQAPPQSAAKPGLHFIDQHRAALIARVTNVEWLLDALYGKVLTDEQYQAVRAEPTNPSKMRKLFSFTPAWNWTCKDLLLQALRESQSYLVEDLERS

| colony-forming capacity of MDS BM-MNC [1] [fold] | reduction of the fraction of pyroptotic cells, CD33+ cells (MDS BM-MNC in autologous BM plasma) [1] [%] | reduction of the fraction of pyroptotic cells, CD71+ cells (MDS BM-MNC in autologous BM plasma) [1] [%] | reduction of the fraction of pyroptotic cells, progenitor cells (MDS BM-MNC in autologous BM plasma) [1] [%] | reduction of the fraction of pyroptotic cells, stem cells (MDS BM-MNC in autologous BM plasma) [1] [%] | NLRP3 activation, as measured by ASC oligomerization (flow cytometry, U2AF1-S34F cells transfected with POP-1) [2] [% reduction] | Molecule |
| --- | --- | --- | --- | --- | --- | --- |
| < 6.6 | 68 | 64 | 23 | 44 | – | S100A9 high-affinity chimeric (CD33-IgG1) decoy receptor (from UniProt P20138 18-259) (Fc fusion) |
| – | – | – | – | – | 40 | pyrin domain-only protein (POP)-1 (protein, UniProt Q8WXC3 1-89, looked up) MGTKREAILKVLENLTPEELKKFKMKLGTVPLREGFERIPRGALGQLDIVDLTDKLVASYYEDYAAELVVAVLRDMRMLEEAARLQRAA |
